The text below walks through data of patent US20110262445A1 (CEPHALON AUSTRALIA, published 2011).

Where a chain is given by its changes, count along the chain named. Names and notes keep the numbering of the source.

By Kd is commonly meant the free concentration of one partner at which half of the binding sites on the other are occupied at equilibrium, for simple one-to-one binding. A higher Kd goes with weaker binding. Broadly, the koff is a measure of how fast the partners let go of each other. A higher koff goes with a short-lived complex. For orientation: kon means a measure of how fast the partners come together. A higher kon goes with faster complex formation.

To fix the notation:
B1: Antibody 3 (antibody, human IgG1, kappa, V domains shown)
VH: EVQLQQSGADLVRSGASIKLSCTASGFNIKDYYMHWVKQRPEQGLEWIGWIDPENGDTEYAPKFQGKATMTADTSSNTAYLQLSSLTSEDTAVYYCNACKELRYFDVWGAGTTVTVSS
VL: DIVLTQSPATLSVTPGDSVSLSCRASQSISINLHWYQQKSHESPRLLIKFASQSISGIPSRFSGYGSGTDFTLSINSVETEDFGRYFCQQSNSFPLTFGAGTKLELKR
notes: Antibody 1 with light chain W94F
B2: Antibody 7 (antibody, human IgG1, kappa, V domains shown)
VH: B1 VH with C99N
VL: B1 VL with F94W
notes: Antibody 1 with heavy chain C95N
B3: Antibody 4 (antibody, human IgG1, kappa, V domains shown)
VH: B1 VH with M34L
VL: B1 VL with F94W
notes: Antibody 1 with heavy chain M34L
B4: Antibody 19 (antibody, human IgG1, kappa, V domains shown)
VH: B1 VH with C99S
VL: B1 VL with F94W
B5: Antibody 22 (antibody, human IgG1, kappa, V domains shown)
VH: B1 VH with C99V
VL: B1 VL with F94W
B6: Antibody 20 (antibody, human IgG1, kappa, V domains shown)
VH: B1 VH with C99T
VL: B1 VL with F94W
B7: scFv combo. # 1 (scFv)
scFv: QVQLVQSGAEVKKPGASVKVSCKASGYTFTDYYLHWVRQAPGRGLEWMGWIDPENGDTEHAPKFQGRVTMTTDTSTSTAYMELRSLRSDDTAVYYCNANKELRYFDVWGQGTMVTVSSGGGGSGGGGSGGGGSEIVMTQSPATLSVSPGERATLSCRASQSISINLHWYQQKPGQAPRLLIYFASQSTSGIPARFSGSGSGTEFTLTISSLQSEDFAVYYCQQSNSFPLTFGGGTKVEIKR
notes: scFv-80 with VH Q43R, Y59H; VL I55T; not shown: proprietary C-terminal FLAG tag
B8: scFv combo. # 2 (scFv)
scFv: B7 scFv with T28A, R43Q, H60S, T188I
notes: scFv-80 with VH T28A, Y59S; not shown: proprietary C-terminal FLAG tag
B9: scFv combo. # 9 (scFv)
scFv: B7 scFv with H60S
notes: scFv-80 with VH Q43R, Y59S; VL I55T; not shown: proprietary C-terminal FLAG tag
B10: scFv combo. # 8 (scFv)
scFv: B7 scFv with F29L, R43Q, H60S, T188I
notes: scFv-80 with VH F29L, Y59S; not shown: proprietary C-terminal FLAG tag
B11: scFv combo. # 6 (scFv)
scFv: B7 scFv with T28A, R43Q, T69S, T188I
notes: scFv-80 with VH T28A, Y59H, T68S; not shown: proprietary C-terminal FLAG tag
B12: scFv combo. # 7 (scFv)
scFv: B7 scFv with F29L, R43Q, T188I
notes: scFv-80 with VH F29L, Y59H; not shown: proprietary C-terminal FLAG tag

The first experiment has as its target T1, human IL-12 (human, UniProt P29460 23-328; P29459 23-219).
T1 construct: Recombinant (Peprotech); FLAG-tagged IL-12 in the flow cytometry assays, biotinylated in the IL-12Rβ2 assay; also called hIL-12
T1 sequence 1: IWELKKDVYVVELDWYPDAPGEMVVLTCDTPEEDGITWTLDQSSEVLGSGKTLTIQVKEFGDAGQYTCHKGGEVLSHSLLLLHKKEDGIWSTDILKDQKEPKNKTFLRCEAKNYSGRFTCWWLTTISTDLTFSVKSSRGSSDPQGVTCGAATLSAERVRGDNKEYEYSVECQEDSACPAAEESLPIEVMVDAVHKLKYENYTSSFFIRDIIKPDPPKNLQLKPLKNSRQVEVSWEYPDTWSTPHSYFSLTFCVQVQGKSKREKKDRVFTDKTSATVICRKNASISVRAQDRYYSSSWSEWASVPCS
T1 sequence 2: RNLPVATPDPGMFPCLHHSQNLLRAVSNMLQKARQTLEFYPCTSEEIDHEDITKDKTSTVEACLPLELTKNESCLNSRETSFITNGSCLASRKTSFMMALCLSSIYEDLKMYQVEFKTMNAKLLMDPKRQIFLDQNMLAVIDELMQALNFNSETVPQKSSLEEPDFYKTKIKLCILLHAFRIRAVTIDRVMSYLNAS
Description: SPR, IgG on Protein A. How it is done:
(§1) Using a SPR 3000, Protein A was immobilized onto FC1 and FC2 (or alternatively FC3 and FC4) of a CM5 research grade sensor chip using amine coupling, giving approximately […] RU. FC1 was used a blank throughout the experiments. The experiments were run in HBS-P buffer (SPR). At a flow rate of 20 μl/min, 20 μl of 5 μg/mL of antibody was passed over FC2. IL-12, IL-23 or IL-12p40 (Peprotech) were passed over the surface of FC1 and FC2 at concentrations ranging from 66 nM to 2 nM. Regeneration of the surface was performed using 10 mM Glycine, pH 1.0. The sensorgram data from FC2 was subtracted from FC1 and a buffer only control. The curves were fitted using a 1:1 Langmuir equation to generate the kd, ka and KD values. All curves were fitted with a χ² of less then 2.0 where possible.
A general note: Surface plasmon resonance follows binding to a sensor surface in real time, without labels.
Molecule B1 displayed an equilibrium dissociation constant (Kd) of 0.0438 nM, an off-rate constant (koff) of 9.39e-05 s⁻¹ and an on-rate (kon) of 2.15e+06 M⁻¹ s⁻¹.
In the same order, the values of B2 are 0.0918 nM, 0.000167 s⁻¹ and 1.82e+06 M⁻¹ s⁻¹.
The like results for B3 were, in that order, 0.133 nM, 0.000204 s⁻¹ and 1.54e+06 M⁻¹ s⁻¹.

A further experiment concerns the target T2, human IL-23 (human, UniProt P29460 23-328; Q9NPF7 20-189).
T2 construct: Recombinant (Ebioscience); HIS-tagged in flow cytometry, biotinylated in some assays; also called hIL-23; rhIL-23
T2 sequence 1: T1 sequence 1
T2 sequence 2: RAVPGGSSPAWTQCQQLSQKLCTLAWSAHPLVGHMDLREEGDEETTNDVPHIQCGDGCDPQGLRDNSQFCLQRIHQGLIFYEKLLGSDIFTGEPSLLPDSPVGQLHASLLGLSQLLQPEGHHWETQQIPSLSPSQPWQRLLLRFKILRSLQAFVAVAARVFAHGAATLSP
The experiment is described as follows: SPR, IgG on Protein A. On the procedure: as §1
In the case of B1, binding was characterised by a dissociation constant (Kd) of 0.0896 nM, the koff is 0.000111 s⁻¹ and the association rate constant (kon) amounted to 1.24e+06 M⁻¹ s⁻¹.
In the case of B2, binding was characterised by a dissociation constant (Kd) of 0.0722 nM, the koff was 0.000147 s⁻¹ and the kon was determined as 2.03e+06 M⁻¹ s⁻¹.
The like results for B3 were, in that order, 0.127 nM, 0.000158 s⁻¹ and 1.25e+06 M⁻¹ s⁻¹.

In a further experiment the target is T1, human IL-12. Description: ELISA, coated IL-12. The method, boiled down: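 Maxisorp plates were coated overnight at 4° C with cytokine at 1 μg/mL in carbonate buffer pH 9.6, then blocked for 1 hour at 25° C with 1% BSA in PBS. Antibody titrations were allowed to bind for 1 hour at 25° C and detected with goat anti-human IgG or anti-murine immunoglobulin HRP (1:2000, 1 hour), followed by TMB development stopped with 1M HCl. Binding is reported as absorbance. Readings were taken at 450 nm against a 620 nm reference.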
(ELISA stands for enzyme-linked immunosorbent assay.)
Consider B4, for which the binding result is on record as “binds”.
Same read-out and setting: as for B5, the entry is “binds”.
Still for that read-out and setting: as for B6, the entry is “binds”.

For another experiment, the target named is T2, human IL-23. Description: ELISA, coated IL-23. How it is done:
This cysteine at the start of CDR3 could be oxidized, causing heterogeneity in any resulting antibody product. It could also form complexes by disulphide bond formation. Therefore, each of the other 18 (the exceptions being the original Cys and Trp) amino acids was substituted in this position using gene synthesis, and the antibodies were expressed transiently (Antibodies 5, 6, 7, 8, 9, 10, 11, 12, 13, 14, 15, 16, 17, 18, 19, 20, 21, 22). An ELISA was performed on these antibodies (FIG. 9). Some of the antibodies retained binding activity for both IL-12 and IL-23, others only for one cytokine or the other, while others minimally bound to either cytokine.
IL-12 (Peprotech), IL-23 (Ebioscience™), IL-12p40 (Ebioscience™) or IL-12p80 (Peprotech), was diluted to 1 μg/mL in carbonate coating buffer ([…] pH 9.6) and coated onto a 96 well plate (Nunc™, Maxisorp™) overnight at 4° C. The plate was then washed three times with wash buffer (0.01M PBS pH 7.2, 0.05% Tween-20) and then three times with 0.01M PBS pH 7.2. The wells were then blocked by adding 200 μl of blocking buffer (1% w/v BSA in 0.01 M PBS pH 7.2) to each well and incubating the plate at 25° C. for 1 hour. The antibody was diluted in antibody diluent (1% w/v BSA, 0.05% Tween-20 in 0.01M PBS pH 7.2) sufficient to generate a titration curve. The wells were incubated with the antibody for 1 hour at 25° C. The plate was then washed as previously described. Goat anti-human immunoglobulin G (H+L) antibody HRP conjugate (Zymed®) at 1:2000 in antibody diluent was used to detect bound primary antibody. Goat anti-murine immunoglobulin antibody HRP conjugate (Dako) at 1:2000 in antibody diluent was used to detect bound murine antibody. After incubation at 25° C. for 1 hour the plate was washed again as previously described. TMB substrate solution (Zymed®) was added to each well and the colour allowed to develop; the reaction was terminated by adding 1M HCl to the wells. The absorbance of each well was determined at 450 nm (ref. 620 nm).
For the molecule B4, the binding result was “binds”.
The same measure, in the same setting: the same measure for B5: “binds”.
Consider B6, for which the binding result is recorded as “binds”.

The next experiment concerns the target T2, human IL-23. The experiment is described as follows: SPR, single 81 nM analyte, scFv via FLAG.
As to B7, the Kd was ≤ 0.032 nM and the kon came to 230000 M⁻¹ s⁻¹.
The like results for B8 were, in that order, ≤ 0.034 nM and 230000 M⁻¹ s⁻¹.
In the case of B9, the Kd was ≤ 0.027 nM and the kon was found to be 220000 M⁻¹ s⁻¹.
The like results for B10 were, in that order, ≤ 0.0075 nM and 200000 M⁻¹ s⁻¹.
Take B11: the dissociation constant Kd is ≤ 0.041 nM and the on-rate constant (kon) was 230000 M⁻¹ s⁻¹.
The like results for B12 were, in that order, ≤ 0.0033 nM and 200000 M⁻¹ s⁻¹.

For a further experiment, the target named is T2, human IL-23. Description: SPR, single 81 nM analyte, scFv via FLAG; LOD about 1 × 10^-5 s^-1.
For B7, the koff is < 1e-05 s⁻¹.
Consider B8, for which the koff is < 1e-05 s⁻¹.
Still for that read-out and setting: as for B9, the figure is < 1e-05 s⁻¹.
Still for that read-out and setting: as for B10, the figure is < 1e-05 s⁻¹; as for B11, < 1e-05 s⁻¹; as for B12, < 1e-05 s⁻¹.
